The source of these data is paper PMC9418327.

The series addresses Dfd (Deformed);Exd (Extradenticle) (Drosophila melanogaster?;Drosophila melanogaster?) (UniProt P07548+P40427). The experiment in a line: EMSA. The note with it: class 2 site printed as 9.1 mM in same passage; assay source not fully shown; 20 mM HEPES pH 7.9, 1.4 mM MgCl2, 1 mM ZnSO4, 40 mM KCl, 0.1 mM EGTA, 5% glycerol, 10 mM DTT, 0.1% NP40, 200 ng poly(dI-dC), 3 ug BSA, 2 pmol Cy5 dsDNA in …. In general terms: Mobility shift assays separate free from complexed probe on a gel.

Chain of Dfd (Deformed);Exd (Extradenticle) (Drosophila melanogaster?;Drosophila melanogaster?) (P07548 whole entry, chain 1 of 2): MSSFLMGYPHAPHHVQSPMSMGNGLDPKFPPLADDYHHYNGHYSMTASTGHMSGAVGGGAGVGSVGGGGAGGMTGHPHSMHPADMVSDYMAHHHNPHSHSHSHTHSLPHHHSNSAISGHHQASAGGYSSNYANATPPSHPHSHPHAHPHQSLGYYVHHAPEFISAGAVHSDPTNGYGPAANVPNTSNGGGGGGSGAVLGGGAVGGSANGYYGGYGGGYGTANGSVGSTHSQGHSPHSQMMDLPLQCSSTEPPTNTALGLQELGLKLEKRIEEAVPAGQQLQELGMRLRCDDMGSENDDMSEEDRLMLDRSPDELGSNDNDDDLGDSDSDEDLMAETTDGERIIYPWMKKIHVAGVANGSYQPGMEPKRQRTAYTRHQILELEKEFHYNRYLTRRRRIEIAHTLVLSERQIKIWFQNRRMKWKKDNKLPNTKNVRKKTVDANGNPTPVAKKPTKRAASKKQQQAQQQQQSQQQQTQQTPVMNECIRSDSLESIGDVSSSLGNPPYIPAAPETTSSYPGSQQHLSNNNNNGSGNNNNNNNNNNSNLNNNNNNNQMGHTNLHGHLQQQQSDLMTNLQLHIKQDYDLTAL
Chain of Dfd (Deformed);Exd (Extradenticle) (Drosophila melanogaster?;Drosophila melanogaster?) (P40427 whole entry, chain 2 of 2): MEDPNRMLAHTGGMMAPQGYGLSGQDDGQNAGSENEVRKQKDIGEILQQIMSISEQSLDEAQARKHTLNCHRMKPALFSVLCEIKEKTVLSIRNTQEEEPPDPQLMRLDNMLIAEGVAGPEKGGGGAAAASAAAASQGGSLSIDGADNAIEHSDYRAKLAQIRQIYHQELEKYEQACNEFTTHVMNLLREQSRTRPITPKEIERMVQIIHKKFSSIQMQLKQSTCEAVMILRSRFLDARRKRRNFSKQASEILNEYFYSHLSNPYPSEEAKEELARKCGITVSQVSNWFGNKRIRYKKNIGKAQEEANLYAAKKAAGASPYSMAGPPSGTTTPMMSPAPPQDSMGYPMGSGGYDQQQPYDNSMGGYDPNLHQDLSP

As to modC enhancer site I, the Kd (mM (so in the source); probably nM)) worked out at 5.5.
